From article PMC5888981, “Scopoletin 8-hydroxylase: a novel enzyme involved in coumarin biosynthesis and iron-deficiency responses in Arabidopsis” (Journal of Experimental Botany, 2018) come the findings set out here.

Substrate in the series: COc1cc2ccc(=O)oc2cc1O
The series can be described thus: purified protein. In kind it is biochemical, Arabidopsis thaliana. The settings on record: Fe2+, 2-oxoglutarate and ascorbate, pH 8.0 (methods b28 say optimal pH 7.0), 31.5 °C, 10 min, 0.1 M potassium phosphate.

B1: S8H (scopoletin 8-hydroxylase; At3g12900 oxidoreductase) (Arabidopsis thaliana) (protein)
chain: GINFEDQTTLFNFVVREGNGVKGMIDSGLSSVPRPFVQPLSERIPTQKALTCEATQPIDLSNLDGPQHKEVAKQIVEAAETLGFFQVVNHGVSVELLELLKSSAHEFFAQAPEEKSMYLKEVSPSKLVKYGTSFVPDKEKAIEWKDYVSMLYTNDSEALQHWPQPCREVALEFLNSSMEMVKNVVNILMENVGVTLEEEKMNGLMGTKMVNMNYYPTCPSPELTVGVGRHSDMGMLTVLLQDGIGGLYVKLDNGEWAEIPPVHGALVINIGDTLQILSNGKYKSAEHRVRTTNIGSRVSVPIFTAPNPSQKVGPLPEVVKRDGVARYKEFLFQDYMNNFFGQPHDGKKSLDFARAE
notes: S8H ORF in pET28a+ (BamHI/XhoI), 6xHis-tagged, no tag removal described; E. coli Rosetta 2; TALON purified
The term Km denotes the concentration of substrate that gives half-maximal velocity. B1: the Km was found to be 11 ± 2 µM and the kcat was found to be 1.73 ± 0.09 s^–1.
